Measured values reported in patent US20100135997A1 (MEDGENE, published 2010).

Molecular target: T1, HLA-A*0201 loaded with the Carcinoembryonic antigen (CEA)-derived … peptide (biotin on the C-terminal biotinylation tag)
T1 construct: Soluble, biotinylated, immobilised on a streptavidin chip
Assay: Biacore SPR
Method: SPR measures changes in refractive index expressed in response units (RU) near a sensor surface within a small flow cell, a principle that can be used to detect receptor ligand interactions and to analyse their affinity and kinetic parameters. The probe flow cells were prepared by immobilising the pMHC complexes in flow cells via biotin-tag binding. The assay was then performed by passing soluble ILT-like molecule over the surfaces of the different flow cells at a constant flow rate, measuring the SPR response in doing so.

Binder	Kd [nM]	koff [s⁻¹]
SEQ ID NO 61 (receptor, mutated soluble two domain ILT-2) MGHLPKPTLWAEPGSVITMGQPVTLRCQGGQETQEYRLYREKKTAPWITRIPQELVKKGQFPIPSITWEHAGRYRCYYGSDTAGRSESSDPLELVVTGAYIKPTLSAQPSPVVNSGGNVTLQCDSQVAFDGFILCKEGEDEHPQCLNSQPHARGSSRAIFSVGPVSPSRRWWYRCYAYDSNSPYEWSLPSDLLELLVL	≤ 1000	≤ 2
SEQ ID NO 62 (receptor, mutated soluble two domain ILT-2) MGHLPKPTLWAEPGSVITMDQPVTLRCQGGQETQEYRLYREKKTAPWITRIPQELVKKGQFPIPSITWEHAGRYRCYYGSDTAGRSESSDPLELVVTGVYIKPTLSAQPSPVVNSGGNVTLQCDSQVAFDGFILCKEGEDEHPQCLNSQPHARGSSRAIFSVGPVSPGRRWWYRCYAYDSNSPYEWSLPSDLLELLVL	≤ 1000	≤ 2
SEQ ID NO 63 (receptor, mutated soluble two domain ILT-2) MGHLPKPTLWAEPGSVITLMQPVTLRCQGGQETQEYRLYREKKTAPWITRIPQELVKKGQFPIPSITWEHAGRYRCYYGSDTAGRSESSDPLELVVTGAYIKPTLSAQPSPVVNSGGNVTLQCDSQVAFDGFILCKEGEDEHPQCLNSQPHARGSSRAIFSVGPVSPSRRWWYRCYAYDSNSPYEWSLPSDLLELLVL	≤ 1000	≤ 2
SEQ ID NO 64 (receptor, mutated soluble two domain ILT-2) MGHLPKPTLWAEPGSVITMQRPVTLRCQGGQETQEYRLYRERKTAPWITRIPQELVKKGQFPIPSITWEHAGRYRCYYGSDTAGRSESSDPLELVVTGAYIKPTLSAQPSPVVNSGGNVTLQCDSQVAFDGFILCKEGEDEHPQCLSSQPHARGSSRAIFSVGPVSPSRRWWYRCYAYDSNSPYEWSLPSDLLELLVL	≤ 1000	≤ 2
SEQ ID NO 65 (receptor, mutated soluble two domain ILT-2) MGHLPKPTLWAEPGSVITMDQPVTLRCQGGQETQEYRLYREKKTAPWITRIPQELVKKGQFPIPSITWEHAGRYRCYYGSDTSQWSASSDPLELVVTGVYIKPTLSAQPSPVVNSGGNVTLQCDSQVAFDGFILCKEGEDEHPQCLNSQPHARGSSRAIFSVGPVSPSRRWWYRCYAYDSNSPYEWSLPSDLLELLVL	≤ 1000	≤ 2
SEQ ID NO 68 (receptor, mutated soluble two domain ILT-2) MGHLPKPTLWAEPGSVITLFQPVTLRCQGGQETQEYRLYREKKTAPWITRIPQELVKKGQFPIPSITWEHAGRYRCYYGSDTAGRSESSDPLELVVTGAYIKPTLSAQPSPVVNSGGNVTLQCDSQVAFDGFILCKEGEDEHPQCLNSQPHARGSSRAIFSVGPVSPSRRWWYRCYAYDSNSPYEWSLPSDLLELLVL	≤ 1000	≤ 2
SEQ ID NO 69 (receptor, mutated soluble two domain ILT-2) MGHLPKPTLWAEPGSVITLSQPVTLRCQGGQETQEYRLYREKKTAPWITRIPQELVKKGQFPIPSITWEHAGRYRCYYGSDTAGRSESSDPLELVVTGVYIKPTLSAQPSPVVNSGGNVTLQCDSQVAFDGFILCKEGEDEHPQCLNSQPHARGSSRAIFSVGPVSPSRRWWYRCYAYDSNSPYEWSLPSDLLELLVL	≤ 1000	≤ 2
SEQ ID NO 70 (receptor, mutated soluble two domain ILT-2) MGHLPKPTLQAEPGSVITQGSPVTLRCQGGQETQEYRLYREKKTAPWITRIPQELVKKGQFPIPSITWEHAGRYRCVIQRGTAGRSESSDPLELVVTGVYIKPTLSAQPSPVVNSGGNVTLQCDSQVAFDGFILCKEGEDEHPQCLNSQPHARGSSRAIFSVGPVSPSRRWWYRCYAYDSNSPYEWSLPSDLLELLVL	≤ 1000	≤ 2
SEQ ID NO 71 (receptor, mutated soluble two domain ILT-2) MGHLPKPTLWAEPGSVITQGSPVTLRCQGGQETQEYRLYREKKTAPWITRIPQELVKKGQFPIPSITWEHAGRYRCYYGSQGGLRSESSDPLELVVTGVYIKPTLSAQPSPVVNSGGNVTLQCDSQVAFDGFILCKEGEDEHPQCLNSQPHARGSSRAIFSVGPVSPSRRWWYRCYAYDSNSPYEWSLPSDLLELLVL	≤ 1000	≤ 2
